According to patent US20240360223A1 (DRAGONFLY THERAPEUTICS, published 2024):
Where a chain is given by its changes, count along the chain named. Several values for one entry are separate records, joined by “and”; a condition that tells them apart may be missing. Identical values can stand only once.

What was measured:
[1] = molecular target: T1, cynomolgus NKG2D (recombinant mFc-tagged dimer) (cynomolgus, UniProt P61252 78-216); test: SPR, average
T1 construct: also called cyno NKG2D
T1 sequence (looked up): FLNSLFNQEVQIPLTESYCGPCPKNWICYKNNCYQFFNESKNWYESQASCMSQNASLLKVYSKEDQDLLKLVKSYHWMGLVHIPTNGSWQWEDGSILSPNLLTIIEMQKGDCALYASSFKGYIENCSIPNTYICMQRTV
Description: Two different fits were utilized to obtain the equilibrium affinity data: steady state affinity fit and kinetic fit.

[2] = molecular target: T2, human BAFF-R expressed on cells (human, UniProt Q96RJ3 1-184); test: flow cytometry, BJAB cells, after 4 weeks at 40 °C
T2 construct: Cell surface BAFF-R, endogenous on B cell lines and primary B cells or overexpressed on isogenic CHO cells; also called hBAFF-R; hBAFF-R-CHO

human CD64 = molecular target: T3, human CD64 (human, UniProt P12314 16-288, limits assumed); test: SPR, recombinant receptor; reference trastuzumab
T3 construct: also called FcγRI

cynomolgus CD16 [3] = molecular target: T4, cynomolgus CD16 (cynomolgus, UniProt Q8SPW2 17-208, limits assumed); test: SPR, recombinant receptor; reference trastuzumab
T4 construct: also called Cyno CD16; cynomolgus FcγRIII

human CD16a V158 = molecular target: T5, human CD16a V158 (human, UniProt P08637 17-208); test: SPR, recombinant receptor; reference trastuzumab
T5 construct: also called hCD16aV; hCD16a V158

human CD32b [4] = molecular target: T6, human CD32b (human, UniProt P31994 46-217, limits assumed); test: SPR, recombinant receptor; reference trastuzumab
T6 construct: also called FcγRIIb
T6 sequence (looked up): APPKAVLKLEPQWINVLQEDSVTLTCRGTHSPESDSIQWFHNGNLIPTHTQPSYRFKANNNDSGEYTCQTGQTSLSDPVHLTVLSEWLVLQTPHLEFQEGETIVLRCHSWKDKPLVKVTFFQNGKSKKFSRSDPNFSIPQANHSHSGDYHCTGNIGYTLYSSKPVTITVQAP

human CD32a R131 = molecular target: T7, human CD32a R131 (human, UniProt P12318 36-218, limits assumed); test: SPR, recombinant receptor; reference trastuzumab
T7 construct: also called FcγRIIa R131
T7 sequence (looked up): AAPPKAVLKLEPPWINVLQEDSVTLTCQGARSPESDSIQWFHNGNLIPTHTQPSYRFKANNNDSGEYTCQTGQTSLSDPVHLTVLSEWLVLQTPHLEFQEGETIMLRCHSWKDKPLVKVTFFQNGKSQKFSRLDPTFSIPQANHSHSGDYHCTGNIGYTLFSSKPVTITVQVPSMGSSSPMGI

human CD32a H131 = molecular target: T8, human CD32a H131 (human, UniProt P12318 36-218, limits assumed); test: SPR, recombinant receptor; reference trastuzumab
T8 sequence (looked up): T7 sequence (looked up) with R132H

human CD16a F158 = human CD16a F158 (human, UniProt P08637 17-208); test: SPR, recombinant receptor; reference trastuzumab
human CD16b = molecular target: T9, human CD16b (human, UniProt O75015 17-200, limits assumed); test: SPR, recombinant receptor; reference trastuzumab
T9 construct: also called FcγRIIIb

[5] = molecular target: T2, human BAFF-R expressed on cells; test: flow cytometry, BJAB cells
[6] = molecular target: T2, human BAFF-R expressed on cells; test: flow cytometry, Rs4;11 cells
human FcRn [7] = molecular target: T10, human FcRn (human, UniProt P55899 24-297; P61769 21-119); test: SPR, pH 6.0, steady state, average; pH 6.0; average of four replicates
cynomolgus CD16 [8] = molecular target: T4, cynomolgus CD16; test: SPR
human CD32b [9] = molecular target: T6, human CD32b; test: SPR, steady state
[10] = molecular target: T11, human NKG2D (recombinant mFc-tagged dimer) (human, UniProt P26718 78-216); test: SPR, steady state fit, average
T11 construct: also called hNKG2D
T11 sequence (looked up): T1 sequence (looked up) with N38D, I128T
Description: (§1) NKG2D is a native dimer, therefore recombinant mFc-tagged NKG2D dimer was used for this experiment. Two different fits were utilized to obtain the equilibrium affinity data: steady state affinity fit and kinetic fit.

[11] = molecular target: T1, cynomolgus NKG2D (recombinant …); test: SPR, steady state fit, average
Description: as §1

[12] = molecular target: T11, human NKG2D (recombinant mFc-tagged …); test: SPR, kinetic fit, after 4 weeks at 40 °C
cynomolgus FcRn [13] = molecular target: T12, cynomolgus FcRn (cynomolgus, UniProt Q8SPV9 24-297; Q8SPW0 21-119); test: SPR, pH 6.0, steady state; pH 6.0; first replicate
T12 construct: also called Cyno FcRn

[14] = molecular target: T2, human BAFF-R expressed on cells; test: flow cytometry, human BAFF-R CHO cells
human FcRn [15] = molecular target: T10, human FcRn; test: SPR, pH 6.0, steady state; pH 6.0; second replicate
cynomolgus FcRn [16] = molecular target: T12, cynomolgus FcRn; test: SPR, pH 6.0, steady state; pH 6.0; third replicate
[17] = molecular target: T2, human BAFF-R expressed on cells; test: blocking of BAFF-biotin on hBAFF-R CHO cells

T4 sequence (Q8SPW2 17-208 limits assumed): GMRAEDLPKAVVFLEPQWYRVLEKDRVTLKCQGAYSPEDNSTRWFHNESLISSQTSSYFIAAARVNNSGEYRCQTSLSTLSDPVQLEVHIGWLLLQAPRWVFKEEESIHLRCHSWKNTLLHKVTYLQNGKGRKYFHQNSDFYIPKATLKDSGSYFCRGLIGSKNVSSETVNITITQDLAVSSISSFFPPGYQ
T10 sequence (P55899 24-297 limits assumed, chain 1 of 2): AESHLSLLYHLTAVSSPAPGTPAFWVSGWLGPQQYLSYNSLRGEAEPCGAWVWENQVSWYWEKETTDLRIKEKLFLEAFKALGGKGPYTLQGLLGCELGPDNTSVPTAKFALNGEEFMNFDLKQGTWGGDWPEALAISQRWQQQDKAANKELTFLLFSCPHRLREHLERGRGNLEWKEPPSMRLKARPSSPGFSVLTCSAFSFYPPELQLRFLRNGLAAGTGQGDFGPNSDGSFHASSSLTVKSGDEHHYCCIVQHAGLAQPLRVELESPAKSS
T10 sequence (P61769 21-119 limits assumed, chain 2 of 2): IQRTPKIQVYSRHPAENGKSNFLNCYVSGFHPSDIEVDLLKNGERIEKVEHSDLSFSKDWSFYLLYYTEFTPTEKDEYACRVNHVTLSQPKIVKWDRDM
T12 sequence (Q8SPV9 24-297 limits assumed, chain 1 of 2): as the sequence (P55899 24-297 limits assumed, chain 1 of 2) above, with N39D, E44Q, G99S, S189G, S190N, L217M, S269T counted along it
T12 sequence (Q8SPW0 21-119 limits assumed, chain 2 of 2): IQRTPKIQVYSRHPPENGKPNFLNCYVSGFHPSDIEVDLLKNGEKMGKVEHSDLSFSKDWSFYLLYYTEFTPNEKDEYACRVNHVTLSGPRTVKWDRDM
T5 sequence (P08637 17-208 F176V limits assumed): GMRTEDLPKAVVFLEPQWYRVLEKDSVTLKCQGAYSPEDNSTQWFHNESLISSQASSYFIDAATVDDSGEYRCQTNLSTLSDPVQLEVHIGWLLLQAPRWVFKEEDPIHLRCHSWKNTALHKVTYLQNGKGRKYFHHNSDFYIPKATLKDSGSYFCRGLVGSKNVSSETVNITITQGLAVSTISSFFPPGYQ
human CD16a F158, sequence (P08637 17-208 limits assumed): as the sequence (P08637 17-208 F176V limits assumed) above, with V160F counted along it
T3 sequence (P12314 16-288 limits assumed): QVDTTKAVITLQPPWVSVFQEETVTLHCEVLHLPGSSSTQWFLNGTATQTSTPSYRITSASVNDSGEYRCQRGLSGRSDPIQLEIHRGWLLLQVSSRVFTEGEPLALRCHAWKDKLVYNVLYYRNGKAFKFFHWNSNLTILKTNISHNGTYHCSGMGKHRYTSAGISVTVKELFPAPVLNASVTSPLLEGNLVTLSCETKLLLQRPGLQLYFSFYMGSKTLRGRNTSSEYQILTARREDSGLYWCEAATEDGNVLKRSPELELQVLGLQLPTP
T9 sequence (O75015 17-200 limits assumed): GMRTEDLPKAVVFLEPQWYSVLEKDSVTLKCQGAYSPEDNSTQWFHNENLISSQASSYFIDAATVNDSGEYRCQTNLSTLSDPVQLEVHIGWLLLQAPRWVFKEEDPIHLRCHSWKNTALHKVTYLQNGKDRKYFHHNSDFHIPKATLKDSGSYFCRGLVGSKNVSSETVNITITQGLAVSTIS

B1: AB1424/AB1612 F3′ TriNKET (bispecific antibody, human IgG1, kappa)
chain: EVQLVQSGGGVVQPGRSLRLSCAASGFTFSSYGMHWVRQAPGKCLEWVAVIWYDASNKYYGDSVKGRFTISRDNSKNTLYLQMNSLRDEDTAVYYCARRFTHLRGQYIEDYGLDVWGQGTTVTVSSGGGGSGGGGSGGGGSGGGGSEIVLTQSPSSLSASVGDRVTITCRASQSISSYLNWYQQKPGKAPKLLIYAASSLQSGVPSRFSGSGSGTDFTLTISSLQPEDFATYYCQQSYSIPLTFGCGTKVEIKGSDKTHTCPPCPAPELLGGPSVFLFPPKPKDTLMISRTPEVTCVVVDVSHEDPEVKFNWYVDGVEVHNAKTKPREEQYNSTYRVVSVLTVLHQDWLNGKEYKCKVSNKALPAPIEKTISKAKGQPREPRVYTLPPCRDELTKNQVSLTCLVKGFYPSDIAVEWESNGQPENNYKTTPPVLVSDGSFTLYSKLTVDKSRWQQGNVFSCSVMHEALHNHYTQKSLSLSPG
heavy: EVQLVESGGGLVKPGGSLRLSCAASGFTFSSYSMNWVRQAPGKGLEWVSSISSSSSYIYYADSVKGRFTISRDNAKNSLYLQMNSLRAEDTAVYYCARGAPIGAAAGWFDPWGQGTLVTVSSASTKGPSVFPLAPSSKSTSGGTAALGCLVKDYFPEPVTVSWNSGALTSGVHTFPAVLQSSGLYSLSSVVTVPSSSLGTQTYICNVNHKPSNTKVDKKVEPKSCDKTHTCPPCPAPELLGGPSVFLFPPKPKDTLMISRTPEVTCVVVDVSHEDPEVKFNWYVDGVEVHNAKTKPREEQYNSTYRVVSVLTVLHQDWLNGKEYKCKVSNKALPAPIEKTISKAKGQPREPQVCTLPPSRDELTENQVSLTCLVKGFYPSDIAVEWESNGQPENNYKTTPPVLDSDGSFFLYSWLTVDKSRWQQGNVFSCSVMHEALHNHYTQKSLSLSPG
light: DIQMTQSPSSVSASVGDRVTITCRASQGISSWLAWYQQKPGKAPKLLIYAASSLQSGVPSRFSGSGSGTDFTLTISSLQPEDFATYYCQQGVSFPRTFGGGTKVEIKRTVAAPSVFIFPPSDEQLKSGTASVVCLLNNFYPREAKVQWKVDNALQSGNSQESVTEQDSKDSTYSLSSTLTLSKADYEKHKVYACEVTHQGLSSPVTKSFNRGEC
notes: Chain S: anti-BAFF-R scFv-CH2-CH3; chain H: anti-NKG2D VH-CH1-CH2-CH3; chain L: anti-NKG2D VL-CL; also called AB1612-002
Q: How did the koff [1] turn out when B1 was run?
A: The koff was 0.11 s⁻¹.

Q: And the kon [1]?
A: Its kon is 190000 M⁻¹ s⁻¹.

Q: And the EC50 [2]?
A: The EC50 was 0.83 nM.

Q: What about the “fold difference in binding against trastuzumab” value (“fold difference in binding” for short) (human CD64) of the same binder?
A: The value was less than 3 fold.

Q: And the “fold difference in binding” value (cynomolgus CD16 [3])?
A: Its value is less than 3 fold.

Q: And the “fold difference in binding” value (human CD16a V158)?
A: The value was less than 3 fold.

Q: What about the “fold difference in binding” value (human CD32b [4]) of the same binder?
A: Its value is less than 1.2 fold.

Q: And the “fold difference in binding” value (human CD32a R131)?
A: The value was less than 1.2 fold.

Q: What about the “fold difference in binding” value (human CD32a H131) of the same binder?
A: The value was less than 1.2 fold.

Q: And the “fold difference in binding” value (human CD16a F158)?
A: The value was less than 3 fold.

Q: What about the “fold difference in binding” value (human CD16b) of the same binder?
A: The value was less than 3 fold.

Q: What about the EC50 [5] of the same binder?
A: Its EC50 is 0.37 nM.

Q: What about the “Max FOB” value [5] of the same binder?
A: Its value is 16 fold over background.

Q: And the EC50 [6]?
A: Its EC50 is 0.09 nM.

Q: And the “Max FOB” value [6]?
A: The value was 4 fold over background.

Q: What about the Kd (human FcRn [7]) of the same binder?
A: The Kd was 1000 nM.

Q: What about the koff (cynomolgus CD16 [8]) of the same binder?
A: The koff was 0.02 s⁻¹ and 0.021 s⁻¹.

Q: And the kon (cynomolgus CD16 [8])?
A: Its kon is 78000 M⁻¹ s⁻¹ and 72000 M⁻¹ s⁻¹.

Q: What about the Kd (human CD32b [9]) of the same binder?
A: The Kd was 5.9 µM and 5.5 µM and 5.8 µM and 6.3 µM.

Q: And the Kd [10]?
A: The Kd was 456 nM.

Q: What about the Kd [11] of the same binder?
A: Its Kd is 520 nM.

Q: And the Kd [12]?
A: Its Kd is 493 nM.

Q: What about the Kd (cynomolgus FcRn [13]) of the same binder?
A: The Kd was 1000 nM.

Q: And the EC50 [14]?
A: Its EC50 is 3.09 nM.

Q: And the Kd (human FcRn [15])?
A: The Kd was 1000 nM.

Q: And the Kd (cynomolgus FcRn [16])?
A: The Kd was 1000 nM.

Q: What about the IC50 [17] of the same binder?
A: The IC50 was 6.76 nM.
